Article doi:10.1101/2022.08.02.502465
Like-named read-outs stand apart in the source and are kept apart here.

Experiments:
DNA polymerase I (Pol I) [1] = molecular target: T1, DNA polymerase I (Pol I) (Escherichia coli, UniProt P00582 1-928); assay: BLI
[2] = molecular target: Pol I endo-mut (endonuclease-dead full-length Pol I) (Escherichia coli, UniProt P00582 1-928, D115A;D140A); assay: cryo-EM structure
[3] = molecular target: Pol I Klenow fragment (Pol IKL) (Escherichia coli, UniProt P00582 328-928); assay: cryo-EM structure
DNA polymerase I (Pol I) [4] = molecular target: T1, DNA polymerase I (Pol I); assay: BLI; remark: listed apart in the source

B1: primed BLI substrate (mixed)
DNA 1: CGCTCACTGGCCGTCGTTTTACAACGTCGTGACTGGGAAAACCCTGGCGTTACC
DNA 2: ACGACGTTGTAAAACGACGGCCAGTGAGCG
B1 was tested, and the Kd (DNA polymerase I (Pol I) [1]) was 42 ± 5 nM.

B2: flapped Okazaki fragment DNA (cryo-EM) (mixed)
DNA 1: B1 DNA 1
DNA 2: GGTAACGCCAGGGTTTTCCCAGTC
DNA 3: TTTTTTACGACGTTGTAAAACGACGGCCAGTGAGCG
B2: binds [2]; binds [3].

B3: continuous BLI substrate (dsDNA)
DNA 1: GGTAACGCCAGGGTTTTCCCAGTCACGACGTTGTAAAACGACGGCCAGTGAGCG
DNA 2: B1 DNA 1
With B3 the Kd (DNA polymerase I (Pol I) [4]) was 285 ± 5 nM.
